In US20160108115:

Experiments:
Assay in all cases: SPR, pH 7.4
Conditions in all cases: remark: other sources report otherwise
[1] = molecular target: FcγRI (human) (UniProt P12314)
[2] = molecular target: FcγRIIIa (human) (UniProt P08637)
[3] = molecular target: FcγRIIIb (human) (UniProt O75015)
Sequence of FcγRIIIb (human) (O75015 17-200): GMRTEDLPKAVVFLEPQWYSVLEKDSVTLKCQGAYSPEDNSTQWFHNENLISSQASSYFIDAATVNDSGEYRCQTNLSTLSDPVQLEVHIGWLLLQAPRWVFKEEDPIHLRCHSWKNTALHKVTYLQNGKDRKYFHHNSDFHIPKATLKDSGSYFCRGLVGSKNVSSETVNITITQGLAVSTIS

Sequence of FcγRI (human) (P12314 16-288): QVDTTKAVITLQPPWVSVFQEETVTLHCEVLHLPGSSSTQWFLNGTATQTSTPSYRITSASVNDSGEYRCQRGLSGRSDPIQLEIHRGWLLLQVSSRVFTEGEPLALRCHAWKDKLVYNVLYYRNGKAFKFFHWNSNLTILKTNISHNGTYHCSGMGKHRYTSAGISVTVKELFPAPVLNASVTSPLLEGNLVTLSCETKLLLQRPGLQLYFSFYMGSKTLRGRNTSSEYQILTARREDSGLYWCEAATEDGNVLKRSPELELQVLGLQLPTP
Sequence of FcγRIIIa (human) (P08637 17-208): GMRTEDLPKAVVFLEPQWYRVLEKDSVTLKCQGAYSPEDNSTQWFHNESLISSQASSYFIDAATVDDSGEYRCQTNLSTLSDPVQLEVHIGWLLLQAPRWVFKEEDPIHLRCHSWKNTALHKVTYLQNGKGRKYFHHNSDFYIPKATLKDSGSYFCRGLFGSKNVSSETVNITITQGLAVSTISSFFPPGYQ

Kd [1]: 3.78 µM | Kd [2]: 6.78 µM | Kd [3]: 3.49 µM
Substance: eculizumab (full length)
